Among the data in PMC8796304 (ACS Central Science, 2021) are binding result, Kd and EC50 values, retold here.

Ends that are not written are not given here.

Assay [1] deals with Frizzled 1 extracellular domain (Homo sapiens (assumed), UniProt Q9UP38). Kind of assay: ELISA. In general terms: ELISA stands for enzyme-linked immunosorbent assay.
Assay [2] concerns the target Frizzled 2 extracellular domain (Homo sapiens (assumed), UniProt Q14332). Kind of assay: ELISA.
In assay [3] the target is T1, Frizzled-7/Fc chimera protein (Homo sapiens, UniProt O75084). Kind of assay: BLI.
In assay [4] the target is T2, GPI-anchored myc peptide tag (Homo sapiens c-Myc epitope tag, UniProt P01106, also: GPI anchor).
T2 chain: EQKLISEEDL
Kind of assay: flow cytometry on cells.

For assay [5], the target named is human Frizzled-7 on Fzd7+myc+ CHO cells (Homo sapiens, UniProt O75084). Kind of assay: flow cytometry on cells. In general terms: Flow cytometry measures light scatter and fluorescence of single cells or particles in a stream.
For assay [6], the target named is T1, Frizzled-7/Fc chimera protein. Kind of assay: ELISA.

Chain of Frizzled 2 extracellular domain (Q14332 whole entry, looked up, the tested form may be a part): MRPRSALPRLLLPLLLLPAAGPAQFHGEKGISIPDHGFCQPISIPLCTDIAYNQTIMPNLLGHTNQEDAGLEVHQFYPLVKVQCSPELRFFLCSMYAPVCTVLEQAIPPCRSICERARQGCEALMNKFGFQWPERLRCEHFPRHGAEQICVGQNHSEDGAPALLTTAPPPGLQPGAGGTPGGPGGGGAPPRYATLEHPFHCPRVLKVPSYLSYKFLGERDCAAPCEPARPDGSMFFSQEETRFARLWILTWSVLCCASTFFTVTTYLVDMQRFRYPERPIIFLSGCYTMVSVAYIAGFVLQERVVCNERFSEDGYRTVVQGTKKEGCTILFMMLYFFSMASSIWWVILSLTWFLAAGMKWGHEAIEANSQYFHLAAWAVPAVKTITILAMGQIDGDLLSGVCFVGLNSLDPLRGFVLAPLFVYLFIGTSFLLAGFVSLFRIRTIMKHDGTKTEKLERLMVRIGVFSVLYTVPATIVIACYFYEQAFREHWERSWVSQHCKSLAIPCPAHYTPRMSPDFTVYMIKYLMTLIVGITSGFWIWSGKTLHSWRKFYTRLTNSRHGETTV
Chain of Frizzled 1 extracellular domain (Q9UP38 whole entry, looked up, the tested form may be a part): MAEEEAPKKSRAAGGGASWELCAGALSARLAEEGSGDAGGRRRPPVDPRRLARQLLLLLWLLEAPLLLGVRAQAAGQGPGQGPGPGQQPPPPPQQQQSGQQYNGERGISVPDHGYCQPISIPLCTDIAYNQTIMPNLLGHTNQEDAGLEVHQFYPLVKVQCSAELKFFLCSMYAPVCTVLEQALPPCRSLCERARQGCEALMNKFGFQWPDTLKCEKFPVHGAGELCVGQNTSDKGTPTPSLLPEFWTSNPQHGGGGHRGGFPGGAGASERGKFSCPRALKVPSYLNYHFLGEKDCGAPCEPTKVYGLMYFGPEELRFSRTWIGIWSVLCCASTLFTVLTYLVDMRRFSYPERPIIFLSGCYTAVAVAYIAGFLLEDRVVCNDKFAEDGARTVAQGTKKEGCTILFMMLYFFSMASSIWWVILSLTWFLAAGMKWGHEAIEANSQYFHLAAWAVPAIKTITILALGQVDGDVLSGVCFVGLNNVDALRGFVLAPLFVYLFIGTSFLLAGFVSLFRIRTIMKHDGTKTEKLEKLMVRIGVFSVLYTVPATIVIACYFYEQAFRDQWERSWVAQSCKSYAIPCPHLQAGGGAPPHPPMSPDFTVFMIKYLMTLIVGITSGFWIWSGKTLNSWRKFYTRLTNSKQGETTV

B1: ML7 (antibody, V domains shown)
VH: EVQLVESGGGLVQPGGSLRLSCAASGFNIYYYSMHWVRQAPGKGLEWVASISSYYGYTYYADSVKGRFTISADTSKNTAYLQMNSLRAEDTAVYYCARSWGYGGSSSYALDYWGQGTLVTVSS
VL: DIQMTQSPSSLSASVGDRVTITCRASQSVSSAVAWYQQKPGKAPKLLIYSASSLYSGVPSRFSGSRSGTDFTLTISSLQPEDFATYYCQQVGGGPITFGQGTKVEIK
Regarding B1, the binding result in assay [1] is reported as “binds”; in assay [2], “binds”; in assay [4], “no binding (tested: 50 nM)”. The molecule further gave a Kd in assay [3] of 0.448 ± 0.053 nM. In addition, the EC50 in assay [5] and in assay [6] was less than 10 nM each time.

B2: ML9 (antibody, V domains shown)
VH: EVQLVESGGGLVQPGGSLRLSCAASGFNIYYYSMHWVRQAPGKGLEWVASISSYYGYTYYADSVKGRFTISADTSKNTAYLQMNSLRAEDTAVYYCARSWGYGGSSSYALDYWGQGTLVTVSS
VL: DIQMTQSPSSLSASVGDRVTITCRASQSVSSAVAWYQQKPGKAPKLLIYSASSLYSGVPSRFSGSRSGTDFTLTISSLQPEDFATYYCQQGWWGYYSLITFGQGTKVEIK
In assay [3], B2 yielded a Kd of 0.292 ± 0.066 nM. In addition, the binding result in assay [4] was “no binding (tested: 50 nM)”.

B3: ML8 (antibody, V domains shown)
VH: EVQLVESGGGLVQPGGSLRLSCAASGFNIYYYSMHWVRQAPGKGLEWVASISSYYGYTYYADSVKGRFTISADTSKNTAYLQMNSLRAEDTAVYYCARSWGYGGSSSYALDYWGQGTLVTVSS
VL: DIQMTQSPSSLSASVGDRVTITCRASQSVSSAVAWYQQKPGKAPKLLIYSASSLYSGVPSRFSGSRSGTDFTLTISSLQPEDFATYYCQQYAYPVYFLITFGQGTKVEIK
In turn, B3 showed a Kd in assay [3] of 4.98 ± 0.28 nM. Besides, the binding result in assay [4] is “no binding (tested: 50 nM)”. Further, the EC50 in assay [5] and in assay [6] was less than 10 nM in each case.

What is called Kd is the concentration at which binding is half-saturated. A word on the EC50: it is the concentration giving half of the maximal effect. A higher EC50 goes with a less potent agent.
